What all share (test): cell_activity
The test system of series [1] is Sleeping Beauty SB11 transposase. The following applies: HEK293 transposition; 2.9 CHO, 2.7 HeLa, 1.0 (inactive) H1299; excision PCR positive.
A further series relates to piggyBac transposase. The following applies: HEK293 transposition; 9.8 CHO, 14.5 HeLa, 5.7 H1299; excision PCR positive.
For another series, the system named is Tol2 transposase. Particulars: HEK293 transposition; 3.3 CHO, 5.4 HeLa, 4.1 H1299.

In the case of “Sleeping Beauty terminal repeat donor plasmid”, the activity (fold over control) in series [1] turned out to be 8.1.

Turning to “TGATTATCTTTCTAGGG (double strand) [piggyBac terminal repeat donor (printed repeat end)]”, the activity (fold over control) in the series on piggyBac transposase amounted to 115.

As for Tol2 terminal repeat donor plasmid, the activity (fold over control) with Tol2 transposase is 93.9.

The record behind these values is US20110130444.
